Test results taken from article PMC5651433 (Alzheimer's & Dementia : Translational Research & Clinical …, 2017).
Non-standard residues stand in square brackets, D forms with d. No end group written: not given here. pY = N[C@@H](Cc1ccc(OP(=O)(O)O)cc1)C(=O)O; pS = N[C@@H](COP(=O)(O)O)C(=O)O

B1: Zfra1–31 (zinc finger-like protein that regulates apoptosis, full-length synthetic peptide) (peptide)
chain: MSSRRSSSCKYCEQDFRAHTQKNAATPFLAN
B2: pY287-WWOX286-299 (peptide)
chain: D[pY]WAMLAYNRSKLC
B3: pS35-TPC6A24-38 (peptide)
chain: DPGPGGQKMSL[pS]VLE
B4: pS271-ANKRD40266-281 (peptide)
chain: RIQNP[pS]LRENDFIEIE
B5: WWOX7-21 (peptide)
chain: AGLDDTDSEDELPPG
B6: WWOX286-299 (peptide)
chain: DYWAMLAYNRSKLC
B7: ANKRD40266-281 (peptide)
chain: RIQNPSLRENDFIEIE
B8: pS14-WWOX7-21 (peptide)
chain: AGLDDTD[pS]EDELPPG

The molecules below were run against endogenous Aβ (AD hippocampus) (human (endogenous in postmortem hippocampus)) (assay: FRET or BRET).

With “endogenous Zfra (human hippocampus) (natural protein)” as the molecule, how does the FRETc read?
The FRETc was over 45.

Target: the molecule itself
Test: reducing SDS-PAGE and Western blotting of SDS-resistant polymers

Does B1 bind?
Result: binds

Target: the molecule itself
Test: nonreducing SDS-PAGE of peptide polymers

Does B2 bind?
Result: binds

Does B3 bind?
Result: binds

Does B4 bind?
Result: binds

Does B5 bind?
Result: binds

Does B6 bind?
Result: binds

Does B7 bind?
Result: binds

Does B8 bind?
Result: binds
